{
  "source": "patent US20070207967A1",
  "about": "“Peptide Inhibitors of Matrix Metalloproteinase Activity” (CTT CANCER TARGETING TECHNOLOGIES OY, priority 2004, published 2007)",
  "key": {"[1]": {"biological_target": "T1, MMP-9 C domain (Homo sapiens, UniProt P14780)", "T1 construct": "MMP-9 (Asp^494-Asp^688) were expressed as described (16); made in house; host or cells: E. coli (β5 fragment)", "T1 sequence (P14780 513-707 limits assumed)": "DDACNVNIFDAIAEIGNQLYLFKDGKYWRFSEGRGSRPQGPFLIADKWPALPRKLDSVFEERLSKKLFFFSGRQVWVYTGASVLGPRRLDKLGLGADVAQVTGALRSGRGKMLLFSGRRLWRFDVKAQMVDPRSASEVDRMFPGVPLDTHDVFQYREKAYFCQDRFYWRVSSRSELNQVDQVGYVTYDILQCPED", "assay": "β5 I-EGF2+3 binding assay, MMP-9 C domain", "procedure": "B5 I-EGF2+3 binding assay. MMP-9 C domain, MMP-2 C domain, CBD, β5 I-EGF2+3 or vitronectin (2 μg/ml) were immobilized in microtiter wells. Biotinylated β5 I-EGF2+3 fragment (2.5 μg/ml) was added to the wells which were preincubated with the competitors for 30 min in 1% BSA-PBST and then incubated further for one hour. Bound biotinylated protein was detected with streptavidin-peroxidase."}, "[2]": {"biological_target": "trypsin-activated MMP-9 (Homo sapiens, UniProt P14780)", "sequence (P14780 107-707 limits assumed)": "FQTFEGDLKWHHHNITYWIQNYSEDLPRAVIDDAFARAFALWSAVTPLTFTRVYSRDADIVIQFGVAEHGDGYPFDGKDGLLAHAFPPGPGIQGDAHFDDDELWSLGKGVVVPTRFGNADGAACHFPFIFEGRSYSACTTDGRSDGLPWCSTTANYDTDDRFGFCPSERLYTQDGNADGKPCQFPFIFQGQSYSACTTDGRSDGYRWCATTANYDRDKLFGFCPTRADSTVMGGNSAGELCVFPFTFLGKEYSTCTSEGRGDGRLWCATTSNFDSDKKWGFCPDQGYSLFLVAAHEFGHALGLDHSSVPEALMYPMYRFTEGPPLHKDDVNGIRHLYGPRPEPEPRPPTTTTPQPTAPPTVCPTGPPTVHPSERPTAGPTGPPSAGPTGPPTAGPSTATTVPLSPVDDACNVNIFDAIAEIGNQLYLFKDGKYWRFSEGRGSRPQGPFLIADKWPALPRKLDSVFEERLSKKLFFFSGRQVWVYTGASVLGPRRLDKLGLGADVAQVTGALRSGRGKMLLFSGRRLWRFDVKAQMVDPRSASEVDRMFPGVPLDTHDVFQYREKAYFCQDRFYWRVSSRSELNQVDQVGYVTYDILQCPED", "assay": "Gelatinase inhibition assay (gelatin degradation), MMP-9", "format": "biochemical", "conditions": "biotinylated gelatin substrate", "procedure": "(§1) Gelatinase inhibition assay. Inhibition of aminophenylmercuric acetate (APMA)-activated MMP-2 and trypsin-activated MMP-9 was performed using biotinylated gelatin as a substrate (15)."}, "[3]": {"biological_target": "pro-MMP-9 (Homo sapiens, UniProt P14780)", "sequence (P14780 20-707 limits assumed)": "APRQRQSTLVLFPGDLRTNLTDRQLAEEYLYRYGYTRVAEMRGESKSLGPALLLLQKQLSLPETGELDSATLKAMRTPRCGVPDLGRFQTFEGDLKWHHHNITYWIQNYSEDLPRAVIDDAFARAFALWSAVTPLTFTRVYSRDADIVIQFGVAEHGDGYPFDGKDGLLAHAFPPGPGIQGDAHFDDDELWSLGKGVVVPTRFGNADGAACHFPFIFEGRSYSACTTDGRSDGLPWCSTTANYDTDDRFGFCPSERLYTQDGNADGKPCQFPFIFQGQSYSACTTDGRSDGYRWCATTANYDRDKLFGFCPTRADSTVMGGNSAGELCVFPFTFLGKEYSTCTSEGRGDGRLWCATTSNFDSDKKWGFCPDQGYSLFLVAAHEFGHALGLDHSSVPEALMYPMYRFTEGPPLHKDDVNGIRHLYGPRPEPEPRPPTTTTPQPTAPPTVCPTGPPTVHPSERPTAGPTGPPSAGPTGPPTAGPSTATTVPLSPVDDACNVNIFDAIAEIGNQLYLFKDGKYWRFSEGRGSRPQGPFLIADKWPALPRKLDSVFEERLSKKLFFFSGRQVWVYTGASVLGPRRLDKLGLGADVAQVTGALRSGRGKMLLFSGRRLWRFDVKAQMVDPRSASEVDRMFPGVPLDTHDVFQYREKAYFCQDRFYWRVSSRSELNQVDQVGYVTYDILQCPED", "assay": "Plasmin/MMP-3-mediated pro-MMP-9 activation in HT1080 cells, zymography", "format": "cell-based", "conditions": "PDBu-activated HT1080, plasminogen, peptides 200 μM", "procedure": "Activation of MMP-9. THP-1 cells (40 000/100 μl) or confluent HT1080 cells were incubated for 16 h in the presence or absence of 2.5 μg/ml plasminogen, 0.5 μg/ml pro-MMP-3 (Oncogene Research Products), 40 nM PDBu, and the peptides at a 200 μM concentration unless otherwise indicated. Aliquots of the conditioned media were analyzed by gelatin zymography (9). […] The samples were analyzed by gelatin zymography."}, "[4]": {"system": "HT1080 fibrosarcoma", "assay": "HT1080 invasion through matrigel", "format": "cell-based, human", "conditions": "200 μM concentration", "procedure": "(§2) Cell migration and invasion. The cell migration assay was conducted using transwell migration chambers (8 μm pore size, Costar) in 10% serum-containing medium (2,14). Briefly, the membranes were coated on both sides with 40 μg/ml GST or with the β2 integrin ligand peptide […]-GST fusion (GST-LLG-C4) and blocked with complete medium. THP-1 cells (50 000/100 μl) were preincubated with the peptides for 1 h in serum-containing medium. The cells were allowed to migrate for 16 h and were then stained with crystal violet and counted (14). The HT1080 (20 000 cells/I100 μl) invasion assay was performed as the THP-1 migration, except that matrigel coated transwells (BD Biosciences) were used."}, "[5]": {"biological_target": "T2, aminophenylmercuric acetate (APMA)-activated MMP-2 (Homo sapiens, UniProt P08253)", "T2 sequence (P08253 110-660)": "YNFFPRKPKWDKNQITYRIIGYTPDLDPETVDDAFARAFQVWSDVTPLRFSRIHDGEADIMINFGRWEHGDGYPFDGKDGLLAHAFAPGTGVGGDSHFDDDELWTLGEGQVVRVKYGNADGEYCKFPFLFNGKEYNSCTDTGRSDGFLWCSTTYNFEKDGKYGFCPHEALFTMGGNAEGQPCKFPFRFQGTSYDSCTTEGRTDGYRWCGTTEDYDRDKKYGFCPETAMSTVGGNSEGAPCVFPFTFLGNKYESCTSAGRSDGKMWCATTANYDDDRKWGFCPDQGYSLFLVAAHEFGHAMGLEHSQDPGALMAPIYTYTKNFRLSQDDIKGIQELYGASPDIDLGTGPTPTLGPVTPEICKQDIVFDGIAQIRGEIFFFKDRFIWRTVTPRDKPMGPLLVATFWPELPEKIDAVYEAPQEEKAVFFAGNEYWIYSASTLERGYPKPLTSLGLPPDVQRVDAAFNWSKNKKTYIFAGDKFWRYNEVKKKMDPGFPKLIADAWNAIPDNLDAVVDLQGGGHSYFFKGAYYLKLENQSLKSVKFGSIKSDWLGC", "assay": "Gelatinase inhibition assay (gelatin degradation), MMP-2", "format": "biochemical", "conditions": "biotinylated gelatin substrate", "procedure": "as §1"}, "[6]": {"system": "THP-1 monocytic cells", "assay": "THP-1 cell migration on GST-LLG-C4", "format": "cell-based, human", "conditions": "GST-LLG-C4 substratum, 16 h", "procedure": "as §2"}},
  "data": [
    {"sequence": "CRVYGPYLLC", "values": [
      {"measurement": "Competition of biotinylated β5 I-EGF2+3 binding to the MMP-9 C domain", "setting": "[1]", "result": "inhibitable"},
      {"measurement": "Inhibition of MMP-9 activity in gelatin degradation assay", "setting": "[2]", "result": "did not inhibit"},
      {"measurement": "Inhibition of pro-MMP-9 activation", "setting": "[3]", "result": "inhibited pro-MMP-9 activation strongly"},
      {"measurement": "Inhibition of HT1080 invasion into matrigel", "setting": "[4]", "result": 50, "unit": "%"},
      {"measurement": "Inhibition of MMP-2 activity in gelatin degradation assay", "setting": "[5]", "result": "did not inhibit"},
      {"measurement": "Inhibition of THP-1 migration", "setting": "[6]", "result": "inhibitory effect"}
    ]}
  ]
}
